Patent US20160145343A1

What was measured:
[1] = biological target: Normal MUC1 on non-transformed MCF-10A cells and on normal tissue (human) (UniProt P15941); experiment: flow cytometry, MCF10a cells
BSA = BSA (UniProt P02769); experiment: ELISA on coated BSA, antibody 0.01 mg/ml, mean of 3
[2] = biological target: SEQ ID NO: 346 glycopeptide with Tn-antigen at Thr4, Thr9 and Thr16; experiment: ELISA on coated glycopeptide, antibody 0.01 mg/ml, mean of 3
[3] = biological target: SEQ ID NO: 346 glycopeptide with TF-antigen at Thr16; experiment: as above

Chain of BSA (P02769 25-607 limits assumed): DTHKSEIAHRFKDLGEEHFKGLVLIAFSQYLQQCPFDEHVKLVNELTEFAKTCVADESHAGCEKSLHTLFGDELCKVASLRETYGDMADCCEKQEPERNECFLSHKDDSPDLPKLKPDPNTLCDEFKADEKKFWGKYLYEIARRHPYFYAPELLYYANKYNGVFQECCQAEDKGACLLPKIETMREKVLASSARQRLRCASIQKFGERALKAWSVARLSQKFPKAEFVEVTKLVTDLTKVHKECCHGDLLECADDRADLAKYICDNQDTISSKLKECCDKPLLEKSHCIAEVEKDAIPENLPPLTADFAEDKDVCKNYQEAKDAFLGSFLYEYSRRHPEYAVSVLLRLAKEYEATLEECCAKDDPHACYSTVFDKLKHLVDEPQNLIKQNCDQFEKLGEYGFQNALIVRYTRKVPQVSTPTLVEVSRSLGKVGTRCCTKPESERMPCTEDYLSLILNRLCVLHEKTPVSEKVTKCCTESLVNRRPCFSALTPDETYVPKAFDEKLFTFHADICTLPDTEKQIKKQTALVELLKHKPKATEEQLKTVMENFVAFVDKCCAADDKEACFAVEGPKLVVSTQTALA

| percentage of APC+ stained cells [1] [%] | ELISA absorbance at 450 nm (BSA) [absorbance] | ELISA absorbance at 450 nm [2] [absorbance] | ELISA absorbance at 450 nm [3] [absorbance] | Binder |
| --- | --- | --- | --- | --- |
| 3.14 | 0.1 | – | – | M3 (antibody, human IgG1, lambda, V domains shown) VH: QLQLQESGPGLVKPSETLSLTCTVSGGSISSSSYYWGWIRQPPGKGLEWIGSIYYSGSTHYNPSLKSRVTISVDTSKNQFSLKLRSVTAADTAVYYCARGVVEVRGNHYYYYYMDVWGKGTTVTVSS VL: QSVLTQPPSVSGAPGQRVTISCTGSSSNIGAGYDVHWYQQLPGTAPKLLIYGNSYRPSGVPDRFSGSKSGTSASLAITGLQAEDEADYYCQSYDSSLSGSGVFGGGTKLTVLG |
| 4.45 | 0.1 | 0.1 | 0.1 | M20 (antibody, human IgG1, kappa, V domains shown) VH: EVQLVESGGGLVQPGGSLRLSCAASGFTFSSYWMHWVRQAPGKGLVWVSHINSDGSSTSYADSVKGRFTISRDNAKNTLYLQMNSLRAEDTAVYYCARELADWGQGTLVTVSS VL: DVVMTQSPLSLPVTLGQPASISCRSSQSLVYSDGNTYLNWFQQRPGQSPRRLIYQVSNRDSGVPDRFSGSGSGTDFTLKIGRVEAEDVGVYFCMQGTHWPWTFGQGTKVEIKR |
| 2.67 | 0.1 | 0.1 | 0.1 | M21 (antibody, human IgG1, kappa, V domains shown) VH: EVQLVESGGGLVQPGGSLRLSCAASGFTVSSNYMSWVRQAPGKGLEWVSVIYSGGSTYYADSVKGRFTISRDNSKNTLYLQMNSLRAEDTAVYYCARDQEHYFDGSGYYVDYWGQGTLVTVSS VL: DVVMTQSPLSLPVTLGQPASISCRSSQSLVYSDGNTYLNWFQQRPGQSPRRLIYQVSNRDSGVPDRFSGSGSGTDFTLKIGRVEAEDVGVYFCMQGTHWPWTFGQGTKVEIKR |
| 2.17 | 0.1 | 0.1 | 0.1 | M22 (antibody, human IgG1, kappa, V domains shown) VH: EVQLVESGGGLVQPGGSLRLSCAASGFTVSSNYMSWVRQAPGKGLEWVSVIYSGGTTYYADSVKGRFTISRHNSKNTLYLQMNSLRAEDTAVYYCARDHDPDYGGYYMDVWGKGTTVTVSS VL: DVVMTQSPLSLPVTLGQPASISCRSSQSLVYSDGNTYLNWFQQRPGQSPRRLIYQVSNRDSGVPDRFSGSGSGTDFTLKIGRVEAEDVGVYFCMQGTHWPWTFGQGTKVEIKR |
| 0.95 | 0.1 | – | – | M7 (antibody, human IgG1, kappa, V domains shown) VH: EVQLVESGGGLVQPGGSLRLSCAASGFTVSSNYMSWVRQAPGKGLEWVSVIYSGGSTYYADSVKGRFTISRDNSKNTLYLQMNSLRAEDTAVYYCARGSTNTYYYDSSGHPWGQGTMVTVSS VL: DIVMTQSPLSLPATPGEPASISCRSSQSLLHSNGYTYLDWYLQKPGQSPQVLIYLASNRASGVPDRFSGSGSGTNFTLKISRVEAEDVGLFYCMQALQTPQTFGQGTKLEIKR |
